Measurements from patent US6417328B1, “Trail receptors, nucleic acids encoding the same, and methods of use thereof” (Thomas Jefferson Univeristy, priority 1997, dated 2002).
Residues, ends and D or L forms follow the SMILES beside them. *: point of attachment. Cbz = O=C(OCc1ccccc1)*; CH2F = FC*

Legend:
Assay type in all cases: cell-based, human
[1] = system: DR5-induced apoptosis in MCF7 cells; experiment: Inhibition of DR5-induced apoptosis in transfected MCF7 cells
From the text: (§1) For apoptosis assays the mammalian double expression vector pRSC (Akporiaye E. T. et al. (1997) BioTech. 22, 68) was used, which allows for expression of lacZ under the RSV promoter and the test cDNA (DR4, DR4A, DR5, DR5A, TRAIL-R3) under the CMV promoter. CrmA, FLAME-1, caspase-8-DN (C345A) or caspase-10-DN (C358A) (Alnemnri E. S. et al. (1997) J. Biol. Chem. 272, 18542-18545) were expressed using pcDNA3 (Invitrogen).
(§2) FIG. 3 illustrates that expression of DR5 but not TRAIL-R3 induces apoptosis in human cells. MCF7 (FIG. 3A) and 293 (FIG. 3B) cells were transfected with the indicated pRSC-lacZ constructs. Thirty hours after transfection cells were stained with Pgal and examined for morphological signs of apoptosis. The graphs show the percentage of round blue apoptotic cells (mean +SD) as a function of total blue cells under each condition (≧23).
(§3) MCF7 cells were transfected with DR4 or DR5 expression constructs in the presence of z-VAD-fmk (20 μM) or co-transfected with a four-fold excess of a CrmA, caspase-8-DN, caspase-10-DN or FLAME-1 construct or an empty vector. The data are represented as in FIGS. 3A and 3B.

[2] = system: DR4-induced apoptosis in MCF7 cells; experiment: Inhibition of DR4-induced apoptosis in transfected MCF7 cells
From the text: as §1, §2, §3

apoptosis by TNF-α = experiment: Inhibition of apoptosis by TNF-α (FIG. 3F)
apoptosis by TRAIL = experiment: Inhibition of apoptosis by TRAIL (FIG. 3F)
293 cells = experiment: Apoptosis induction by transient expression in 293 cells; details: pRSC-lacZ constructs, thirty hours after transfection (FIG. 3B)
From the text: as §1, §2

MCF7 cells [3] = experiment: Apoptosis induction by transient expression in MCF7 cells; details: pRSC-lacZ constructs, thirty hours after transfection (FIG. 3A)
From the text: as §1, §2

MCF7 cells [4] = experiment: Blocking of TRAIL-induced apoptosis in MCF7 cells; details: MCF7 cells transfected 36 h, then soluble TRAIL 250 ng/ml for 8 h (FIG. 3C)
Method: Cells were stained 8 hours later with propidium iodide and the nuclei were examined by fluorescence microscopy.
MCF7 cells were transfected with TRAIL-R3 or vector alone for 36 h, then treated with soluble TRAIL (250 ng/ml) for 8 h. The data are represented as in FIGS. 3A and 3B, after subtracting the background killing (12-15%) as a result of transfection.

[5] = MCF7 cells co-transfected with four-fold excess of inhibitor construct (FIG. 3D, 3E)

COC(=O)C[C@H](NC(=O)[C@H](C)NC(=O)[C@@H](NC(=O)OCc1ccccc1)C(C)C)C(=O)CF [z-VAD-fmk, reference compound] (Cbz-Val-Ala-Asp(OMe)-CH2F)
Inhibition of DR5-induced apoptosis ([1]; MCF7 cells transfected with DR5 construct in the presence of inhibitor 20 μM (FIG. 3D)): efficiently blocked
Inhibition of DR4-induced apoptosis ([2]; MCF7 cells transfected with DR4 construct in the presence of inhibitor 20 μM (FIG. 3D)): inhibited

DR5s: alternatively spliced isoform of DR5, 350 amino acids (SEQ ID NO:6), truncated death domain
Inhibition of apoptosis by TNF-α (apoptosis by TNF-α): not
Inhibition of apoptosis by TRAIL (apoptosis by TRAIL): substantially inhibits

B1: caspase-8-DN: dominant negative inhibitor caspase-8 (C345A), expressed using pcDNA3 (protein, UniProt Q14790 1-479, looked up, variant C345A)
chain: MDFSRNLYDIGEQLDSEDLASLKFLSLDYIPQRKQEPIKDALMLFQRLQEKRMLEESNLSFLKELLFRINRLDLLITYLNTRKEEMERELQTPGRAQISAYRVMLYQISEEVSRSELRSFKFLLQEEISKCKLDDDMNLLDIFIEMEKRVILGEGKLDILKRVCAQINKSLLKIINDYEEFSKERSSSLEGSPDEFSNGEELCGVMTISDSPREQDSESQTLDKVYQMKSKPRGYCLIINNHNFAKAREKVPKLHSIRDRNGTHLDAGALTTTFEELHFEIKPHDDCTVEQIYEILKIYQLMDHSNMDCFICCILSHGDKGIIYGTDGQEAPIYELTSQFTGLKAPSLAGKPKVFFIQACQGDNYQKGIPVETDSEEQPYLEMDLSSPQTRYIPDEADFLLGMATVNNCVSYRNPAEGTWYIQSLCQSLRERCPRGDDILTILTEVNYEVSNKDDKKNMGKQMPQPTFTLRKKLVFPSD
Inhibition of DR5-induced apoptosis [1, 5]: significantly inhibited
Inhibition of DR4-induced apoptosis [2, 5]: significantly inhibited

B2: TRAIL-R3: human TRAIL receptor protein of 299 amino acids (SEQ ID NO:4) without cytoplasmic domain (protein, listed as Homo sapiens)
chain: MQGVKERFLPLGNSGDRAPRPPDGRGRVRPRTQDGVGNHTMARIPKTLKFVVVIVAVLLPVLAYSATTARQEEVPQQTVAPQQQRHSFKGEECPAGSHRSEHTGACNPCTEGVDYTNASNNEPSCFPCTVCKSDQKHKSSCTMTRDTVCQCKEGTFRNENSPEMCRKCSRCPSGEVQVSNCTSWDDIQCVEEFGANATVETPAAEETMNTSPGTPAPAAEETMNTSPGTPAPAAEETMTTSPGTPAPAAEETMTTSPGTPAPAAEETMTTSPGTPASSHYLSCTIVGIIVLIVLLIVFV
Induction of apoptosis by transient expression (293 cells): incapable of inducing apoptosis
Induction of apoptosis by transient expression (MCF7 cells [3]): incapable of inducing apoptosis
Blocking of TRAIL-induced apoptosis by transient (ectopic) expression (MCF7 cells [4]): significantly blocked

B3: DR5: human TRAIL receptor protein of 411 amino acids (SEQ ID NO:2) with cytoplasmic death domain (protein, listed as Homo sapiens)
chain: MEQRGQNAPAASGARKRHGPGPREARGARPGLRVPKTLVLVVAAVLLLVSAESALITQQDLAPQQRVAPQQKRSSPSEGLCPPGHHISEDGRDCISCKYGQDYSTHWNDLLFCLRCTRCDSGEVELSPCTTTRNTVCQCEEGTFREEDSPEMCRKCRTGCPRGMVKVGDCTPWSDIECVHKESGIIIGVTVAAVVLIVAVFVCKSLLWKKVLPYLKGICSGGGGDPERVDRSSQRPGAEDNVLNEIVSILQPTQVPEQEMEVQEPAEPTGVNMLSPGESEHLLEPAEAERSQRRRLLVPANEGDPTETLRQCFDDFADLVPFDSWEPLMRKLGLMDNEIKVAKAEAAGHRDTLYTMLIKWVNKTGRDASVHTLLDALETLGERLAKQKIEDHLLSSGKFMYLEGNADSAMS
Induction of apoptosis by transient expression (293 cells): triggers apoptosis
Induction of apoptosis by transient expression (MCF7 cells [3]): triggers apoptosis
